The labels stand for the following.
B1: Suppressor of fused homolog (Homo sapiens), Q9UMX1 (parent)
chain: MAELRPSGAPGPTAPPAPGPTAPPAFASLFPPGLHAIYGECRRLYPDQPNPLQVTAIVKYWLGGPDPLDYVSMYRNVGSPSANIPEHWHYISFGLSDLYGDNRVHEFTGTDGPSGFGFELTFRLKRETGESAPPTWPAELMQGLARYVFQSENTFCSGDHVSWHSPLDNSESRIQHMLLTEDPQMQPVQTPFGVVTFLQIVGVCTEELHSAQQWNGQGILELLRTVPIAGGPWLITDMRRGETIFEIDPHLQERVDKGIETDGSNLSGVSAKCAWDDLSRPPEDDEDSRSICIGTQPRRLSGKDTEQIRETLRRGLEINSKPVLPPINPQRQNGLAHDRAPSRKDSLESDSSTAIIPHELIRTRQLESVHLKFNQESGALIPLCLRGRLLHGRHFTYKSITGDMAITFVSTGVEGAFATEEHPYAAHGPWLQILLTEEFVEKMLEDLEDLTSPEEFKLPKEYSWPEKKLKVSILPDVVFDSPLH

In this experiment the parent is B1. As to conditions: with gli3_mouse Gli3, Q61602.
Chain of gli3_mouse Gli3, Q61602 (Q61602 whole entry): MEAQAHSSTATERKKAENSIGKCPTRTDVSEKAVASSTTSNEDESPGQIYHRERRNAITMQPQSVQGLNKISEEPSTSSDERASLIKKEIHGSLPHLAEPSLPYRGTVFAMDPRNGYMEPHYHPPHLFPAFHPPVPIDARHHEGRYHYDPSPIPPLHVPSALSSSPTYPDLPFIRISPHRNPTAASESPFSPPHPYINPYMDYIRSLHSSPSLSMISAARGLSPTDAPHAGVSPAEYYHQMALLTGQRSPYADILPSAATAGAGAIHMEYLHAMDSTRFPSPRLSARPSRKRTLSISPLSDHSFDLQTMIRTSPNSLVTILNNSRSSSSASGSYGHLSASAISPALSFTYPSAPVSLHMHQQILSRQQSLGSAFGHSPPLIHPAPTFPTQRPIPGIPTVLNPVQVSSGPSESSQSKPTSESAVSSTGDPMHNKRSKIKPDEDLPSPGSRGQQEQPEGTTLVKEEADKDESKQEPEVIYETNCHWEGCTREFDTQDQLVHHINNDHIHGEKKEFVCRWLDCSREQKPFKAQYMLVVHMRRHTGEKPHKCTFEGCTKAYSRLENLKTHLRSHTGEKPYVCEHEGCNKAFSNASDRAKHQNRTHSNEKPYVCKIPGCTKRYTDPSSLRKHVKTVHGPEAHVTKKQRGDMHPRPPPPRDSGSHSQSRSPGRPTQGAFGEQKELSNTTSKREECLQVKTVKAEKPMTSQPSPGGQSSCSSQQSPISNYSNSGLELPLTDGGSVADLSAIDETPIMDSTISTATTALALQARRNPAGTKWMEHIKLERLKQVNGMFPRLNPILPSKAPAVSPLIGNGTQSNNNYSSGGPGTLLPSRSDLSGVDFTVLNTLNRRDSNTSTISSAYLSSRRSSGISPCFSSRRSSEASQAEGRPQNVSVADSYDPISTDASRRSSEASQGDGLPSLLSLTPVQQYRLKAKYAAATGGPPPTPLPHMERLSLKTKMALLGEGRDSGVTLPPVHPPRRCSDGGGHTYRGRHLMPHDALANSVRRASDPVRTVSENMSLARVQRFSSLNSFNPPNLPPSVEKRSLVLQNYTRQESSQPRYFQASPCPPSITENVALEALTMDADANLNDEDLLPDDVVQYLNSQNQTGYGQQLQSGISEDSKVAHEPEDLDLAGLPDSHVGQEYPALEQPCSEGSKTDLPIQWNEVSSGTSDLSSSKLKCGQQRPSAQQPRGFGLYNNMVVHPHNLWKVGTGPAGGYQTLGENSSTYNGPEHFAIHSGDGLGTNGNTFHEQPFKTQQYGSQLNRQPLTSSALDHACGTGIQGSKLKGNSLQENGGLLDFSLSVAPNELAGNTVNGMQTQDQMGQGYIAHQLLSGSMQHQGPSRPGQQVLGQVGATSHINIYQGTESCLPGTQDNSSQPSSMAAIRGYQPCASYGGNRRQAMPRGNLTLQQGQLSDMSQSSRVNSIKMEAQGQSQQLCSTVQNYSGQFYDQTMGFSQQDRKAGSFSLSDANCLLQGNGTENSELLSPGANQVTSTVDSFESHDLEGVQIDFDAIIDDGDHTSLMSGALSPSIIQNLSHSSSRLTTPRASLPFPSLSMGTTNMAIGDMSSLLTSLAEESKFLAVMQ
With I406T, the “effect of a mutation on the interaction” value is “disrupting interaction strength”.

Take H176R: the “effect of a mutation on the interaction” value is “decreasing interaction strength”.

The record behind these values is IntAct's records for PubMed 28965847.
